The text below walks through data of PMC8764033 (2022).

A word on the Kd: it is the concentration at which binding is half-saturated.

The target in experiment [1] is T1, WD40 domain of Cdh1 from Saccharomyces cerevisiae (aa 241–550), for anisotropy (S. cerevisiae, UniProt P53197 241-550).
T1 chain: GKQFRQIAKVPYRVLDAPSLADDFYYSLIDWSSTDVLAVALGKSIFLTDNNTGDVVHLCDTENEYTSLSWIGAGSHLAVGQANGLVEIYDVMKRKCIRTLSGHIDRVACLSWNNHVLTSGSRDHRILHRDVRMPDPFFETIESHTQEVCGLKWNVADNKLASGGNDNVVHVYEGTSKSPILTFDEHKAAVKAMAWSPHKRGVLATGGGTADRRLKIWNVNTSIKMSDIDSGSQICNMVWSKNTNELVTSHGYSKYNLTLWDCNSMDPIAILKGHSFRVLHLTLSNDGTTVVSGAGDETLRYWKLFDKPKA
The experiment is described as follows: FP.

The target of experiment [2] is T1, WD40 domain of Cdh1 from Saccharomyces …. The experiment is described as follows: FP; + unlabeled Hsl1 D box peptide (100 uM).
Experiment [3] shares this target. Kind of experiment: FP; + unlabeled Hsl1 D box mutant peptide (100 uM).
The target in experiment [4] is T2, WD40 domain of human Cdc20 (aa 162–484), for anisotropy (human, UniProt Q12834 162-484).
T2 chain: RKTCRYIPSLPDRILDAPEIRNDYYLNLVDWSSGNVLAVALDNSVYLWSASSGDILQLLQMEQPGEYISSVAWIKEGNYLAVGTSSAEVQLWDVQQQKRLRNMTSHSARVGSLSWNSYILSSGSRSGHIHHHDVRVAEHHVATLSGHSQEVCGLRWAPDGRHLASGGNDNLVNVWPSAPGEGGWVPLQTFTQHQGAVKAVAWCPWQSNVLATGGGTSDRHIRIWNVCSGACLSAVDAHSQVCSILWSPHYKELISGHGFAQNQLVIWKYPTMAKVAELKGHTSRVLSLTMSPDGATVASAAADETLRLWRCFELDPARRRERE
Kind of experiment: FP.

Experiment [5] concerns the target T1, WD40 domain of Cdh1 from Saccharomyces …. The experiment is described as follows: FP; + unlabeled Hsl1 KEN peptide (100 uM).
For experiment [6] the target is unchanged. Kind of experiment: FP; + unlabeled Hsl1 KEN mutant peptide (100 uM).

Where “and” joins values, the source holds several entries; their conditions need not be identical. Identical values can stand only once. Where no end group is shown, it is not given here. Cy5 = cyanine-5 fluorescent label

For the molecule GVSTNKENEGPEYPTKIEK-Cy5 [Cy5-labeled Hsl1 KEN peptide], the Kd in experiment [1] is 22 µM; in experiment [2], 3.4 µM; in experiment [3], 16 µM and 11 µM.
For the molecule QDSKPRRALTDVPVNNNPLSQK-Cy5 [Cy5-labeled Clb5 D box peptide], the Kd in experiment [1] was more than 30.6 µM.
Same read-out and setting: as for AQQQGRLPLAAKDNNRSKSFIK-Cy5 [Cy5-labeled ySecurin D box peptide], the figure is more than 30.6 µM.
As for EQKPKAAAASDITASFNKMNK-Cy5 [Cy5-labeled Hsl1 D box mutant peptide], the Kd in experiment [1] was more than 30.6 µM.
For EQKPKRAALSDITNSFNKMNK-Cy5 [Cy5-labeled Hsl1 D box peptide], the Kd in experiment [1] was 2.9 µM; in experiment [4], 2.5 µM; in experiment [5], 1.1 µM and 1.2 µM; in experiment [6], 2.9 µM.
